The data set deals with the molecule itself. Description: negative-stain electron microscopy; gel-filtration fractions of the low and the high MW peak stained and visualised by EM.

B1: S. cerevisiae GINS complex (complex)
chain 1: MDINIDDILAELDKETTAVDSTKITQGSSSTTHRDANTIVGSSLDLNDKTQIYVSPQQDFSDLMKSWKNERCSPELLPYPHQLMKRLLNRISMQSQLIENISMGFLDMQNASNANPPMPNESKLPLLCMETELERLKFVIRSYIRCRLSKIDKFSLYLRQLNEDENSLISLTDLLSKDEIKYHDTHSLIWLKLVNDSILKYMPEELQAINDTEGSVNMIDEPDWNKFVFIHVNGPPDGKWNEDPLLQENEFGKPCYTVTIPDLKEEVELTIGSIYVMRYEVIRDLLRDDKVALI
chain 2: MYGDLGNKLVLEAKRTKQLYARSNQDVNLPMYHEDIIRNILKEVSNLRKNTEYLKEQQQLGMLDDKVAKCQYFVTLLCMERNKRCLLAYQRLRTDILDSMAWNNNGLDLMSSITFSQQDTNNLSHQEQEYLKEYCDLITDLKSGDLVDIDLSGSLVPPSDVFIDVRVLKDAGEIQTEYGVFNLIKDSQFFVRQSDVERLIQQGYLQKI
chain 3: MSLPAHLQQTFSPEEIQFIVENEPIKIFPRITTRQKIRGDDRGTGNHTRWQLITTDDKALNNMVAMRSTEVVLWIALLLKQQSKCSIVAPQWLTTKELDRKIQYEKTHPDRFSELPWNWLVLARILFNKAKDDFHDPIHELRGKIQDLREIRQIKVLKGLKYLNESHLQLDNLSLLEINELRPFITEIMDKLREIHTASLTAGTENDEEEFNI
chain 4: MGYYDIDDVLADGTEFPCKFQYDIPGLGYLENNPGRPITKNTKLSLPLWLARILAIVGGDEALVDEEPVPFVELLPPDMFSTKVMNAIKTDPVALDLHSINSHFFSLAIKWIMLFSEKELANVVSELLLQRAQELNHHASSLSIDLNADSTGKNSANTNIATSTFLLKLEEMEKEIYKKSHESYKDTKRWMFKK
notes: Sld5 subunit of the S. cerevisiae GINS complex; Psf1 subunit of the S. cerevisiae GINS complex; Psf2 subunit of the S. cerevisiae GINS complex; Psf3 subunit of the S. cerevisiae GINS complex; details may be in the Supplementary Information; also called yeast GINS complex; copies: + + +
Turning to B1, the binding result is recorded as “binds”.
